Consider 3 molecules from patent US20220172420A1 (Daiichi Sankyo, published 2022).

The assay has as its target T1, human epidermal growth factor receptor 3 (HER3) (human, UniProt P21860 20-1342).
T1 construct: whole, on cells; The target is the endogenous HER3 of the cell lines used; also called ErbB3; HER3 protein
Put plainly: flow cytometry on HCC1569 cells, PE-labelled anti-human secondary antibody, one-site specific binding fit. As to the method: A human breast cancer cell line HCC1569 (CRL-2330) from ATCC was cultured in an RPMI1640 medium (purchased from Invitrogen Corp., containing 10% […] (manufactured by Invitrogen Corp.) and 2 mM L-glutamine (manufactured by Invitrogen Corp.)). The cells were dissociated from the culture plate using ACCUTASE® SOLUTION (Millipore Corp., SCR005) or EDTA (5 mM, phosphate buffered saline (PBS, 137 mM sodium chloride, 2.7 mM potassium chloride, 1.47 mM potassium dihydrogen phosphate, and 10.5 mM disodium hydrogen phosphate)), and the number of living cells was measured by trypan blue treatment.
The cells of each group were reacted with a primary antibody dilution for 45 minutes on ice and then washed with a FACS buffer. Further, 100 uL of a FACS buffer or a reaction solution of a secondary antibody diluted 1/100 (phycoerythrin (PE)-coupled anti human antibody, Dianova GmbH #709-116-149) was added thereto. The cells were treated for 45 minutes on ice in the dark and then washed with a FACS buffer, and dead cells were excluded using a FACS buffer or a FACS buffer supplemented with 7-aminoactinomycin D (7AAD, Sigma-Aldrich Co. LLC, #A9400, 1.1 ug/mL).
The equilibrium binding affinity KD and the maximum binding strength Bmax were calculated using GraphPad Prism software.
In general terms: A flow cytometer gives signals particle by particle.

B1: anti-HER3 human antibody U1-59 (antibody, human IgG1, kappa, V domains shown)
VH: QVQLQQWGAGLLKPSETLSLTCAVYGGSFSGYYWSWIRQPPGKGLEWIGEINHSGSTNYNPSLKSRVTISVETSKNQFSLKLSSVTAADTAVYYCARDKWTWYFDLWGRGTLVTVSS
VL: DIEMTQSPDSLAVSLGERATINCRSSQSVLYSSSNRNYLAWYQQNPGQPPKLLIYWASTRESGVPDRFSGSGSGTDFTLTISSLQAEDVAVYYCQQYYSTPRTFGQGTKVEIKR
notes: also called non-conjugated anti-HER3 antibody U1-59
For the molecule B1, the Bmax came to 31800 and the Kd – broadly, the free concentration of one partner at which half of the binding sites on the other are occupied at equilibrium, for simple one-to-one binding – was found to be 1.67 nM.

B2: Antibody-drug conjugate (13) (antibody, human IgG1, kappa, V domains shown)
VH: B1 VH
VL: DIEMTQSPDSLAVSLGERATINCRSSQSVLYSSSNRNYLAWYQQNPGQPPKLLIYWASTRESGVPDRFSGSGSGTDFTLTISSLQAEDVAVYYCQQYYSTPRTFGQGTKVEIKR
modifications: may carry the same drug-linker on a cysteine (L chain bound to one drug molecule); position not stated; exatecan drug-linker -(Succinimid-3-yl-N)-CH2CH2CH2CH2CH2-C(=O)-GGFG-NH-CH2-O-CH2-C(=O)-(NH-DX), joined by thioether bonds to cysteines freed by reducing the hinge disulfide bonds; average 6.2 (procedure E) or 7.0 (procedure F) drug molecules per antibody; positions not given
notes: also called ADC (13)
Molecule B2 showed a Bmax of 28400 and a Kd of 2.76 nM.

B3: Antibody-drug conjugate (3) (antibody, human IgG1, kappa, V domains shown)
VH: B1 VH
VL: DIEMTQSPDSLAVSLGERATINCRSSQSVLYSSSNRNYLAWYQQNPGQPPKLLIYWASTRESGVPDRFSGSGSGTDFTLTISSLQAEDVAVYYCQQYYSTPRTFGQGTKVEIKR
modifications: may carry the same drug-linker on a cysteine (L chain bound to one drug molecule); position not stated; exatecan drug-linker -(Succinimid-3-yl-N)-CH2CH2CH2CH2CH2-C(=O)-GGFG-NH-CH2CH2CH2-C(=O)-(NH-DX), joined by thioether bonds to cysteines freed by reducing the hinge disulfide bonds; average 4.9 drug molecules per antibody (UV method); positions not given
notes: also called ADC (3)
B3 returned a Bmax of 28900 and a dissociation constant Kd of 1.65 nM.
